Assay results taken from IntAct's records for PubMed 29039417.

B1: BBSome complex member BBS5 (Homo sapiens), Q8N3I7 (parent)
chain: MSVLDALWEDRDVRFDLSAQQMKTRPGEVLIDCLDSIEDTKGNNGDRGRLLVTNLRILWHSLALSRVNVSVGYNCILNITTRTANSKLRGQTEALYILTKCNSTRFEFIFTNLVPGSPRLFTSVMAVHRAYETSKMYRDFKLRSALIQNKQLRLLPQEHVYDKINGVWNLSSDQGNLGTFFITNVRIVWHANMNDSFNVSIPYLQIRSIKIRDSKFGLALVIESSQQSGGYVLGFKIDPVEKLQESVKEINSLHKVYSASPIFGVDYEMEEKPQPLEALTVEQIQDDVEIDSDGHTDAFVAYFADGNKQQDREPVFSEELGLAIEKLKDGFTLQGLWEVMS
partner: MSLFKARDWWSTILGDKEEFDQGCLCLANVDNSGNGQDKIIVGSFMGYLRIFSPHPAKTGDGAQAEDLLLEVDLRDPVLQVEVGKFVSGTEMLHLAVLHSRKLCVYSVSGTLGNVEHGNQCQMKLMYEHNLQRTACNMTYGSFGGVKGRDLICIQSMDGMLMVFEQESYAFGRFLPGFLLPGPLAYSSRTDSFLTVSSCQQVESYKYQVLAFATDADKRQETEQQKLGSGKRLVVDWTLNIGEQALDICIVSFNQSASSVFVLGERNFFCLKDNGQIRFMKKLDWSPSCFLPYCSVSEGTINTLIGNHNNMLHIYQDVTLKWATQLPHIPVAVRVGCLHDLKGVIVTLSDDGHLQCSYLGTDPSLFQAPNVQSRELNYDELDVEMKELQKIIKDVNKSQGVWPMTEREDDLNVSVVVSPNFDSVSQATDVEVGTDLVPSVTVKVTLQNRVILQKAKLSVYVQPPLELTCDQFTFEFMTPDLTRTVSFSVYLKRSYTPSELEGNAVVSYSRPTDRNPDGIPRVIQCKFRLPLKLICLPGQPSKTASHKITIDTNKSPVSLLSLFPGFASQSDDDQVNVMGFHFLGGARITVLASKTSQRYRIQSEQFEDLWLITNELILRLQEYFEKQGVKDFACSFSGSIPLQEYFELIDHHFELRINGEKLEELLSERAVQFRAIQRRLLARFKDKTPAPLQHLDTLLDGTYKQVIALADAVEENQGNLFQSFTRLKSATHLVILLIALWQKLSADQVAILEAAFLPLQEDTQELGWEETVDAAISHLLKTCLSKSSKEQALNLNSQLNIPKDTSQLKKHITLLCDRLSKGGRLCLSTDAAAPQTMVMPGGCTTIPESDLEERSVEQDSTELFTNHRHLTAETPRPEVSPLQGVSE

Variants of: B1
Conditions: with pthb1_human BBS9, Q3SYG4

effect of a mutation on the interaction	Variant
with no effect	G45E
with no effect	G45K
with no effect	G45A
with no effect	V71K
with no effect	V71A
with no effect	V71E
with no effect	H60E
with no effect	H60K
with no effect	H60A
with no effect	T24E
with no effect	T24A
with no effect	T24K
disrupting interaction strength	N68A
with no effect	N68E
with no effect	N68K
with no effect	R66K
with no effect	R66A
with no effect	R66E
with no effect	L30A
with no effect	L30K
disrupting interaction strength	L30P
with no effect	L30E
disrupting interaction strength	L55F
disrupting interaction strength	L55A
with no effect	L55K

effect of a mutation on the interaction	Variant
disrupting interaction strength	L55E
with no effect	R49K
with no effect	R49E
with no effect	R49A
with no effect	L58A
disrupting interaction strength	L58K
with no effect	L58E
with no effect	D35A
with no effect	D35E
with no effect	D35K
with no effect	N54K
disrupting interaction strength	N54E
with no effect	N54A
with no effect	L64E
with no effect	L64A
with no effect	L64K
with no effect	W59A
with no effect	W59E
with no effect	W59K
with no effect	V67E
with no effect	V67A
with no effect	V67K
with no effect	T40E
with no effect	T40A
with no effect	T40K

effect of a mutation on the interaction	Variant
with no effect	V69K
with no effect	V69E
with no effect	V69A
disrupting interaction strength	V29A
with no effect	V29E
disrupting interaction strength	V29K
with no effect	I57K
with no effect	I57E
with no effect	I57A
with no effect	L51K
with no effect	L51E
with no effect	L51A
with no effect	C33K
with no effect	C33A
with no effect	C33E
with no effect	S61K
with no effect	S61A
with no effect	S61E
disrupting interaction strength	S61F
disrupting interaction strength	D46N
with no effect	D46K
with no effect	D46E
with no effect	D46A
with no effect	N44E
with no effect	N44A

effect of a mutation on the interaction	Variant
with no effect	N44K
with no effect	L50K
with no effect	L50E
disrupting interaction strength	L50A
with no effect	S18E
with no effect	S18K
with no effect	D39K
with no effect	D39A
with no effect	D39E
with no effect	I37E
with no effect	I37A
with no effect	I37K
with no effect	G48E
disrupting interaction strength	G48S
with no effect	G48K
with no effect	G48A
with no effect	Y73E
with no effect	Y73A
with no effect	Y73K
with no effect	S65E
with no effect	S65A
with no effect	S65K
with no effect	R25A
disrupting interaction strength	R25E
disrupting interaction strength	R25K

effect of a mutation on the interaction	Variant
with no effect	E38A
with no effect	E38K
with no effect	S36E
with no effect	S36K
with no effect	S36A
with no effect	G72A
with no effect	G72K
disrupting interaction strength	G72S
with no effect	G72E
disrupting interaction strength	M22A
disrupting interaction strength	M22E
disrupting interaction strength	M22K
with no effect	R47K
with no effect	R47A
with no effect	R47E
with no effect	P26K
disrupting interaction strength	P26E
with no effect	P26A
with no effect	G42A
with no effect	G42K
disrupting interaction strength	G42E
with no effect	Q20E
disrupting interaction strength	Q20A
with no effect	Q20K
with no effect	A63K

effect of a mutation on the interaction	Variant
with no effect	A63E
with no effect	T53A
with no effect	T53K
with no effect	T53E
with no effect	I31E
disrupting interaction strength	I31A
with no effect	I31K
with no effect	S70K
with no effect	S70E
with no effect	S70A
disrupting interaction strength	E28K
disrupting interaction strength	E28A
with no effect	K41A
with no effect	K41E
with no effect	Q21E
with no effect	Q21K
with no effect	Q21A
with no effect	L34E
with no effect	L34K
with no effect	L34A
with no effect	G27K
disrupting interaction strength	G27R
disrupting interaction strength	G27E
disrupting interaction strength	G27A
with no effect	L62K

effect of a mutation on the interaction	Variant
with no effect	L62E
with no effect	L62A
with no effect	N43K
with no effect	N43E
with no effect	N43A
disrupting interaction strength	V52K
with no effect	V52E
with no effect	V52A
with no effect	D32A
with no effect	D32K
with no effect	D32E
disrupting interaction strength	D32G
disrupting interaction strength	R56G
disrupting interaction strength	R56A
disrupting interaction strength	R56E
disrupting interaction strength	R56K
with no effect	A19E
with no effect	A19K
with no effect	K23A
with no effect	K23E
